Test results taken from patent publication US20220289820.

System: D11-CD8stk-IL2Rg_A5-Hinge-IL2Rb
Sequence (chain, as listed by the source, chain 1 of 2): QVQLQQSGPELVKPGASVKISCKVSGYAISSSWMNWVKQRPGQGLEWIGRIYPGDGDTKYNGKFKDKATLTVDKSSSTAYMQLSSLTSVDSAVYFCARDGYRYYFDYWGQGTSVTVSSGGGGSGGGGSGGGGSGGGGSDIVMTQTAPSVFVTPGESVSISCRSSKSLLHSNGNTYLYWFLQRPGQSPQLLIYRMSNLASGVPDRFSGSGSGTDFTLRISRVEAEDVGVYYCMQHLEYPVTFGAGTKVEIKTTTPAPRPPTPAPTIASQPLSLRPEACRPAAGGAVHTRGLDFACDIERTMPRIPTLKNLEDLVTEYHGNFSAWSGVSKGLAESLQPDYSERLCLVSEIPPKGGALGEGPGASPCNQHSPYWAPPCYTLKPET
Sequence (chain, as listed by the source, chain 2 of 2): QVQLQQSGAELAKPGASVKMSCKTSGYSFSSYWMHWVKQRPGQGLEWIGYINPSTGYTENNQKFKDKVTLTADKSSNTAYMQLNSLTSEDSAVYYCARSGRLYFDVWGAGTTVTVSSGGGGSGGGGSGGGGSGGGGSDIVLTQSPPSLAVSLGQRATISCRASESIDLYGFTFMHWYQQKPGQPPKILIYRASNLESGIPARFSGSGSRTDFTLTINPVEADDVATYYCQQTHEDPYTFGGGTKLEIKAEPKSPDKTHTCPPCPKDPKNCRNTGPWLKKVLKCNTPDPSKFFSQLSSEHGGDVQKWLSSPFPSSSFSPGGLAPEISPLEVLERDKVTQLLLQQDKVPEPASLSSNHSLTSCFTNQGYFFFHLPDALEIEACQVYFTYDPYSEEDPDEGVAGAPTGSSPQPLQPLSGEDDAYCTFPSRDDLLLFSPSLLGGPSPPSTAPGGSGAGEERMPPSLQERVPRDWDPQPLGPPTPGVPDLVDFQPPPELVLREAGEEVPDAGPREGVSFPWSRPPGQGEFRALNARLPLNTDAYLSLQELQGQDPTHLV

## prostate-specific antigen (PSA)
  phosphorylation of Y694 of STAT5 (phosphoflow): In the cells expressing the PSA CCR, the presence of PSA lead to increasing STAT5 phosphorylation with time
